The values that follow come from paper PMC7556864, “The NTP generating activity of pyruvate kinase II is critical for apicoplast maintenance in Plasmodium falciparum” (eLife, 2020).

Series [1] concerns the target T1, PyrKII (P. falciparum pyruvate kinase II; His-PyrKII) (Plasmodium falciparum, UniProt Q8IJ37).
T1 construct: gene PF3D7_1037100; residues 42-745 (predicted mature protein, apicoplast trafficking peptide removed); synthetic codon-harmonized gene; MBP-TEV-His6 fusion from E. coli BL21 Star (DE3), MBP cut by TEV, N-terminal His6 kept; 83,014 Da
T1 sequence (Q8IJ37 42-745): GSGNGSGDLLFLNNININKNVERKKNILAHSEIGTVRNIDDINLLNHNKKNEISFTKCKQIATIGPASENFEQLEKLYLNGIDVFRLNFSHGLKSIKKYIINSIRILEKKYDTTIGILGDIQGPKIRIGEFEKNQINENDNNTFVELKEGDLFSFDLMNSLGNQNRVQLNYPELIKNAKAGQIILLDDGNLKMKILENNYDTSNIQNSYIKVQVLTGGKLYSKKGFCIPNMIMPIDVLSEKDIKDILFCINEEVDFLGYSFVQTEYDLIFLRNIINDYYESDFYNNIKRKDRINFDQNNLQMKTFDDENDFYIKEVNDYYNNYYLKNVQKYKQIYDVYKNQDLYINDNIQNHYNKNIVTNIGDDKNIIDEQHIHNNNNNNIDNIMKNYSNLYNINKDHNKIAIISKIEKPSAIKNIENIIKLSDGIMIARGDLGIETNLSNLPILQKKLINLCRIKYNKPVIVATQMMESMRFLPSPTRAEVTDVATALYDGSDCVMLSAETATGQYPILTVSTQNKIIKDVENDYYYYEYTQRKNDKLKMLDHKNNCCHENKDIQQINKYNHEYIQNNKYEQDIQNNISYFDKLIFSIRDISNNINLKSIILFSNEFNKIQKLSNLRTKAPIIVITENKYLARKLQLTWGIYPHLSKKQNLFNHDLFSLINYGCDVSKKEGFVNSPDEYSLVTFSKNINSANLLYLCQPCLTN
The series is described as follows: LDH-coupled spectrophotometric assay, NADH oxidation at […] nm. The conditions noted are these: 3 mM ADP, PEP 0-20 mM, 10 mM MgCl2, 50 mM KCl, 26.5 mM Tris-HCl pH 7.5. In kind it is biochemical.

Substrate in series [2]: Nc1ccn([C@H]2C[C@H](O)[C@@H](COP(=O)(O)OP(=O)(O)O)O2)c(=O)n1
Description: purified protein. Particulars: 5 mM PEP, 10 mM MgCl2, 50 mM KCl, 26.5 mM Tris-HCl pH 7.5. In kind it is biochemical, Plasmodium falciparum.

Substrate in series [3]: O=c1ccn([C@@H]2O[C@H](COP(=O)(O)OP(=O)(O)O)[C@@H](O)[C@H]2O)c(=O)[nH]1
The series is described as follows: purified protein. In kind it is biochemical, Plasmodium falciparum. Particulars: 5 mM PEP, 10 mM MgCl2, 50 mM KCl, 26.5 mM Tris-HCl pH 7.5.

Substrate in series [4]: Nc1ncnc2c1ncn2[C@H]1C[C@H](O)[C@@H](COP(=O)(O)OP(=O)(O)O)O1
The series is described as follows: purified protein. The format is biochemical, Plasmodium falciparum. The conditions noted are these: 5 mM PEP, 10 mM MgCl2, 50 mM KCl, 26.5 mM Tris-HCl pH 7.5.

Substrate in series [5]: Nc1ncnc2c1ncn2[C@@H]1O[C@H](COP(=O)(O)OP(=O)(O)O)[C@@H](O)[C@H]1O
The series is described as follows: purified protein. In kind it is biochemical, Plasmodium falciparum. Particulars: 5 mM PEP, 10 mM MgCl2, 50 mM KCl, 26.5 mM Tris-HCl pH 7.5.

Substrate in series [6]: Nc1nc2c(ncn2[C@@H]2O[C@H](COP(=O)(O)OP(=O)(O)O)[C@@H](O)[C@H]2O)c(=O)[nH]1
Description: purified protein. The format is biochemical, Plasmodium falciparum. The conditions noted are these: 5 mM PEP, 10 mM MgCl2, 50 mM KCl, 26.5 mM Tris-HCl pH 7.5.

Substrate in series [7]: Nc1ccn([C@@H]2O[C@H](COP(=O)(O)OP(=O)(O)O)[C@@H](O)[C@H]2O)c(=O)n1
Description: purified protein. The format is biochemical, Plasmodium falciparum. The conditions noted are these: 5 mM PEP, 10 mM MgCl2, 50 mM KCl, 26.5 mM Tris-HCl pH 7.5.

Substrate in series [8]: Nc1nc2c(ncn2[C@H]2C[C@H](O)[C@@H](CO[P@](=O)(O)OP(=O)(O)O)O2)c(=O)[nH]1
Description: purified protein. In kind it is biochemical, Plasmodium falciparum. The conditions noted are these: 5 mM PEP, 10 mM MgCl2, 50 mM KCl, 26.5 mM Tris-HCl pH 7.5.

Turning to `C=C(OP(=O)(O)O)C(=O)O` [PEP], the Km in series [1] was 0.64+ / - 0.05 mM.

B1: PyrKII (P. falciparum pyruvate kinase II; His-PyrKII) (Plasmodium falciparum 3D7) (protein)
chain: T1 sequence (Q8IJ37 42-745)
notes: residues 42-745 (predicted mature protein, apicoplast trafficking peptide removed); synthetic codon-harmonized gene; MBP-TEV-His6 fusion from E. coli BL21 Star (DE3), MBP cut by TEV, N-terminal His6 kept; 83,014 Da
In the case of B1, the kcat – broadly, the maximal rate divided by the concentration of active sites – in the series “purified protein [2]” stood at 1.3 ± 0.05 s⁻¹; in the series “purified protein [3]” it was 4.2 ± 0.667 s⁻¹; in the series “purified protein [4]”, 6.68 ± 0.517 s⁻¹; in “purified protein [5]”, 13.2 ± 3.1 s⁻¹; in the series “purified protein [6]”, 6.62 ± 0.75 s⁻¹; in “purified protein [7]” it was 7.3 ± 1.15 s⁻¹. Moreover, in “purified protein [8]”, the kcat worked out at 1.5 ± 0.0833 s⁻¹. Besides, the kcat/Km – broadly, the second-order rate constant that governs catalysis at low substrate concentration – in “purified protein [2]” stood at 2480 M⁻¹ s⁻¹; in the series “purified protein [3]” it was 5100 M⁻¹ s⁻¹; in “purified protein [4]”, 17800 M⁻¹ s⁻¹; in “purified protein [5]”, 53300 M⁻¹ s⁻¹; in the series “purified protein [6]”, 98200 M⁻¹ s⁻¹; in “purified protein [7]”, 7200 M⁻¹ s⁻¹. In addition, the kcat/Km in the series “purified protein [8]” is 5300 M⁻¹ s⁻¹.
